{"source": "patent US20140274782A1", "about": "“AFFINITY REAGENTS AND METHODS FOR DETECTION, PURIFICATION, AND PROTEOMIC ANALYSIS OF METHYLATED PROTEINS” (The Board of Trustees of the Leland Stanford Junior …, priority 2013, published 2014)", "key": {"3×MBT domain of L3MBTL1": {"test_system": "3×MBT domain of L3MBTL1", "test": "Triple SILAC pull-down, 3xMBT/3xMBTD355N ratio (cytoplasmic, nuclear and chromatin fractions of 293T cells);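 on all read-outs here: proteins quantified with MaxQuant, requiring at least two unique peptides and quantification in both label directions, normalized to the mean of proteins from a digested loading control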", "assay_type": "binding, human", "conditions": "SILAC ratio, pull-down 3xMBT vs 3xMBTD355N; for 3xMBT/D355N UNC Heavy: experiment with UNC0638 in heavy SILAC media; for 3xMBT/D355N UNC Light: experiment with UNC0638 in light SILAC media"}, "G9a and GLP": {"target": "T1, G9a and GLP (Homo sapiens, UniProt Q96KQ7+Q9H9B1)", "T1 construct": "endogenous in cells; host or cells: HEK 293T", "T1 sequence (Q96KQ7 2-1210 limits assumed)": "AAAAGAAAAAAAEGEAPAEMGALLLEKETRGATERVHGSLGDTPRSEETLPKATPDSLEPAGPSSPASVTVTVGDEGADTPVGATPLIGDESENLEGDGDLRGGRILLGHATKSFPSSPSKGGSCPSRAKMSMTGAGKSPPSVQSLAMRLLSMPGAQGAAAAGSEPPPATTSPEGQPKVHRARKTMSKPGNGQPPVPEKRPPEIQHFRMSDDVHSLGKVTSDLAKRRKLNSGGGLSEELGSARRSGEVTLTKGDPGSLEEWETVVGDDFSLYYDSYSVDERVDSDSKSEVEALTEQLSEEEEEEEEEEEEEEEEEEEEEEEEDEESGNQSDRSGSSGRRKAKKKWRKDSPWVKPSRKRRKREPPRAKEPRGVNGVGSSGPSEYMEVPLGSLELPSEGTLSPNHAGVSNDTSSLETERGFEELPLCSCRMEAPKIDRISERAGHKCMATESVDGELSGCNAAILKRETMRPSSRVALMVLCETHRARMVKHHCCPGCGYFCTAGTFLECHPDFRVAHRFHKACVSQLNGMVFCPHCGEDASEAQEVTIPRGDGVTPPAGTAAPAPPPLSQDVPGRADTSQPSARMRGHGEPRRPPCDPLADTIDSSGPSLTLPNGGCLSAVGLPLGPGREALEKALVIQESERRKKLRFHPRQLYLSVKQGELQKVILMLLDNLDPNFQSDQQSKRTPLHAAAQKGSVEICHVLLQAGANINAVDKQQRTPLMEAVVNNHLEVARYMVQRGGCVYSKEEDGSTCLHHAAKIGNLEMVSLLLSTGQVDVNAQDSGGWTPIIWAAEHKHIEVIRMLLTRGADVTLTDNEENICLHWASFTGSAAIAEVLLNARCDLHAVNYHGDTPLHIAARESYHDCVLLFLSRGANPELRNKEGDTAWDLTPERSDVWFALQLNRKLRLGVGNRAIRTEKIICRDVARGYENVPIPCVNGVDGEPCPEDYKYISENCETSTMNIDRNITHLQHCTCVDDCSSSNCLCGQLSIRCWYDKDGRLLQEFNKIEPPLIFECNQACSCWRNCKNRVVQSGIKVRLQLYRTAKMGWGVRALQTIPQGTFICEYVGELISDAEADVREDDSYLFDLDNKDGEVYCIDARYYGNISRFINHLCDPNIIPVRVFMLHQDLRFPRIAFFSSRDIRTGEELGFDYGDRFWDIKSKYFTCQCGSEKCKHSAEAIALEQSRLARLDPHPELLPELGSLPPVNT", "T1 sequence (Q9H9B1 2-1298 limits assumed)": "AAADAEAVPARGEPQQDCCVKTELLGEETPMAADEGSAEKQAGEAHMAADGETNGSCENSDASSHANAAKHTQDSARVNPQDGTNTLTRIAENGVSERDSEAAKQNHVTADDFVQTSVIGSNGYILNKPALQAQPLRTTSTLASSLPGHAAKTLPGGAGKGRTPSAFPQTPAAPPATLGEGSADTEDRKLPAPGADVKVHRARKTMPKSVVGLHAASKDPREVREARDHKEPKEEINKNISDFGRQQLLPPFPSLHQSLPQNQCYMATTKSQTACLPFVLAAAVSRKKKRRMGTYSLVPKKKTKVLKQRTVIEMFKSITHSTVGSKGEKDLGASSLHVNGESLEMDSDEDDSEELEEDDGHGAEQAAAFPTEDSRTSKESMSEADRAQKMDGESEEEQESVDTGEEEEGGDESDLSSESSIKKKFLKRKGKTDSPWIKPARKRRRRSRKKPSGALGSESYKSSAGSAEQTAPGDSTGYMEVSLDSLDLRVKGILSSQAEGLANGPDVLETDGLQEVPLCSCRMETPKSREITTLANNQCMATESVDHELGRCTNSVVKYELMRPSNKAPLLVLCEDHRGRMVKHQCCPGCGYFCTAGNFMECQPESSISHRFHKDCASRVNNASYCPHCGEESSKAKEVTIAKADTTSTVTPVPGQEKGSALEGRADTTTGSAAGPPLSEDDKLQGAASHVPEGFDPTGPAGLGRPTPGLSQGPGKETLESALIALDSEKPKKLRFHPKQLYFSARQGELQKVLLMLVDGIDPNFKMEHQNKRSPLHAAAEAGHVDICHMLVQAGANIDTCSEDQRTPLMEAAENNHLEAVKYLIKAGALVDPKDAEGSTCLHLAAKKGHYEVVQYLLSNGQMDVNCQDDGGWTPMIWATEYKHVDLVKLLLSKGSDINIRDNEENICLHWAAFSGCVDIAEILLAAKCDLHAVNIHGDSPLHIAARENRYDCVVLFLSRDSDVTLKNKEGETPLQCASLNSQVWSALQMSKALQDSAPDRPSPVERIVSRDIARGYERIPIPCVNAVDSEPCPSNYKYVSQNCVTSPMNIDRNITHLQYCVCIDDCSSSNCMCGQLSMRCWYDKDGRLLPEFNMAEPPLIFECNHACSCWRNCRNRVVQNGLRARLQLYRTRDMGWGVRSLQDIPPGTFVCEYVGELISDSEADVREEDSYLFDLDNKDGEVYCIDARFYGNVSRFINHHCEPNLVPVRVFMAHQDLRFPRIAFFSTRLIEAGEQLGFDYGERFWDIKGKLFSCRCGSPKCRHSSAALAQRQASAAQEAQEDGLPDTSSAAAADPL", "test": "Triple SILAC pull-down after UNC0638 treatment of 293T cells, DMSO/UNC0638 ratio of protein captured by 3×MBT;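 on all read-outs here: mass spectrometry (Q-Exactive) SILAC quantitation, DMSO/UNC0638 ratio computed after subtracting 3×MBTD355N mutant pull-down background, only proteins with at least twofold 3×MBT over mutant signal considered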", "assay_type": "cell-based", "conditions": "for Relative to UNC0638 UNC Heavy / Relative to UNC0638 UNC Light: SILAC ratio DMSO/UNC0638 of protein pulled down with 3xMBT; for Relative to UNC0638 UNC Heavy: UNC0638 in heavy SILAC media; for Relative to UNC0638 UNC Light: UNC0638 in light SILAC media; for Relative to UNC0638 Average: average of UNC Light and UNC Heavy experiments"}}, "data": [{"substance": "TFG", "values": [{"measurement": "3xMBT/D355N UNC Heavy", "setting": "3×MBT domain of L3MBTL1", "value": 4.21, "unit": "log base 2"}, {"measurement": "3xMBT/D355N UNC Light", "setting": "3×MBT domain of L3MBTL1", "value": 4.03, "unit": "log base 2"}, {"measurement": "Relative to UNC0638 UNC Heavy", "setting": "G9a and GLP", "value": 0.16, "unit": "log base 2"}, {"measurement": "Relative to UNC0638 UNC Light", "setting": "G9a and GLP", "value": 0.22, "unit": "log base 2"}, {"measurement": "Relative to UNC0638 Average", "setting": "G9a and GLP", "value": 0.19, "unit": "log base 2"}]}, {"substance": "THOC2", "values": [{"measurement": "3xMBT/D355N UNC Heavy", "setting": "3×MBT domain of L3MBTL1", "value": 2.50, "unit": "log base 2"}, {"measurement": "3xMBT/D355N UNC Light", "setting": "3×MBT domain of L3MBTL1", "value": 2.01, "unit": "log base 2"}, {"measurement": "Relative to UNC0638 UNC Heavy", "setting": "G9a and GLP", "value": 0.64, "unit": "log base 2"}, {"measurement": "Relative to UNC0638 UNC Light", "setting": "G9a and GLP", "value": "−0.05", "unit": "log base 2"}, {"measurement": "Relative to UNC0638 Average", "setting": "G9a and GLP", "value": 0.30, "unit": "log base 2"}]}, {"substance": "LANCL1", "values": [{"measurement": "3xMBT/D355N UNC Heavy", "setting": "3×MBT domain of L3MBTL1", "value": 1.33, "unit": "log base 2"}, {"measurement": "3xMBT/D355N UNC Light", "setting": "3×MBT domain of L3MBTL1", "value": 1.63, "unit": "log base 2"}, {"measurement": "Relative to UNC0638 UNC Heavy", "setting": "G9a and GLP", "value": 0.14, "unit": "log base 2"}, {"measurement": "Relative to UNC0638 UNC Light", "setting": "G9a and GLP", "value": 0.23, "unit": "log base 2"}, {"measurement": "Relative to UNC0638 Average", "setting": "G9a and GLP", "value": 0.18, "unit": "log base 2"}]}, {"substance": "ZNF207", "values": [{"measurement": "3xMBT/D355N UNC Heavy", "setting": "3×MBT domain of L3MBTL1", "value": 2.48, "unit": "log base 2"}, {"measurement": "3xMBT/D355N UNC Light", "setting": "3×MBT domain of L3MBTL1", "value": 3.12, "unit": "log base 2"}, {"measurement": "Relative to UNC0638 UNC Heavy", "setting": "G9a and GLP", "value": 0.34, "unit": "log base 2"}, {"measurement": "Relative to UNC0638 UNC Light", "setting": "G9a and GLP", "value": 0.09, "unit": "log base 2"}, {"measurement": "Relative to UNC0638 Average", "setting": "G9a and GLP", "value": 0.21, "unit": "log base 2"}]}, {"substance": "CHD4", "values": [{"measurement": "3xMBT/D355N UNC Heavy", "setting": "3×MBT domain of L3MBTL1", "value": 2.24, "unit": "log base 2"}, {"measurement": "3xMBT/D355N UNC Light", "setting": "3×MBT domain of L3MBTL1", "value": 3.63, "unit": "log base 2"}, {"measurement": "Relative to UNC0638 UNC Heavy", "setting": "G9a and GLP", "value": 0.34, "unit": "log base 2"}, {"measurement": "Relative to UNC0638 UNC Light", "setting": "G9a and GLP", "value": 0.14, "unit": "log base 2"}, {"measurement": "Relative to UNC0638 Average", "setting": "G9a and GLP", "value": 0.24, "unit": "log base 2"}]}, {"substance": "HSPA5", "values": [{"measurement": "3xMBT/D355N UNC Heavy", "setting": "3×MBT domain of L3MBTL1", "value": 0.70, "unit": "log base 2"}, {"measurement": "3xMBT/D355N UNC Light", "setting": "3×MBT domain of L3MBTL1", "value": 2.32, "unit": "log base 2"}, {"measurement": "Relative to UNC0638 UNC Heavy", "setting": "G9a and GLP", "value": 0.35, "unit": "log base 2"}, {"measurement": "Relative to UNC0638 UNC Light", "setting": "G9a and GLP", "value": 0.05, "unit": "log base 2"}, {"measurement": "Relative to UNC0638 Average", "setting": "G9a and GLP", "value": 0.20, "unit": "log base 2"}]}, {"substance": "BUB3", "values": [{"measurement": "3xMBT/D355N UNC Heavy", "setting": "3×MBT domain of L3MBTL1", "value": 2.75, "unit": "log base 2"}, {"measurement": "3xMBT/D355N UNC Light", "setting": "3×MBT domain of L3MBTL1", "value": 3.26, "unit": "log base 2"}, {"measurement": "Relative to UNC0638 UNC Heavy", "setting": "G9a and GLP", "value": 0.15, "unit": "log base 2"}, {"measurement": "Relative to UNC0638 UNC Light", "setting": "G9a and GLP", "value": 0.14, "unit": "log base 2"}, {"measurement": "Relative to UNC0638 Average", "setting": "G9a and GLP", "value": 0.15, "unit": "log base 2"}]}, {"substance": "GRWD1", "values": [{"measurement": "3xMBT/D355N UNC Heavy", "setting": "3×MBT domain of L3MBTL1", "value": 2.87, "unit": "log base 2"}, {"measurement": "3xMBT/D355N UNC Light", "setting": "3×MBT domain of L3MBTL1", "value": 2.55, "unit": "log base 2"}, {"measurement": "Relative to UNC0638 UNC Heavy", "setting": "G9a and GLP", "value": 0.24, "unit": "log base 2"}, {"measurement": "Relative to UNC0638 UNC Light", "setting": "G9a and GLP", "value": 0.09, "unit": "log base 2"}, {"measurement": "Relative to UNC0638 Average", "setting": "G9a and GLP", "value": 0.17, "unit": "log base 2"}]}, {"substance": "CTBP2", "values": [{"measurement": "3xMBT/D355N UNC Heavy", "setting": "3×MBT domain of L3MBTL1", "value": 1.97, "unit": "log base 2"}, {"measurement": "3xMBT/D355N UNC Light", "setting": "3×MBT domain of L3MBTL1", "value": 1.74, "unit": "log base 2"}, {"measurement": "Relative to UNC0638 UNC Heavy", "setting": "G9a and GLP", "value": 0.50, "unit": "log base 2"}, {"measurement": "Relative to UNC0638 UNC Light", "setting": "G9a and GLP", "value": 0.15, "unit": "log base 2"}, {"measurement": "Relative to UNC0638 Average", "setting": "G9a and GLP", "value": 0.32, "unit": "log base 2"}]}]}
